Experimental findings from patent US20080311599 are described below.

Data set [1] concerns the target T1, p72 (1-600).
T1 chain: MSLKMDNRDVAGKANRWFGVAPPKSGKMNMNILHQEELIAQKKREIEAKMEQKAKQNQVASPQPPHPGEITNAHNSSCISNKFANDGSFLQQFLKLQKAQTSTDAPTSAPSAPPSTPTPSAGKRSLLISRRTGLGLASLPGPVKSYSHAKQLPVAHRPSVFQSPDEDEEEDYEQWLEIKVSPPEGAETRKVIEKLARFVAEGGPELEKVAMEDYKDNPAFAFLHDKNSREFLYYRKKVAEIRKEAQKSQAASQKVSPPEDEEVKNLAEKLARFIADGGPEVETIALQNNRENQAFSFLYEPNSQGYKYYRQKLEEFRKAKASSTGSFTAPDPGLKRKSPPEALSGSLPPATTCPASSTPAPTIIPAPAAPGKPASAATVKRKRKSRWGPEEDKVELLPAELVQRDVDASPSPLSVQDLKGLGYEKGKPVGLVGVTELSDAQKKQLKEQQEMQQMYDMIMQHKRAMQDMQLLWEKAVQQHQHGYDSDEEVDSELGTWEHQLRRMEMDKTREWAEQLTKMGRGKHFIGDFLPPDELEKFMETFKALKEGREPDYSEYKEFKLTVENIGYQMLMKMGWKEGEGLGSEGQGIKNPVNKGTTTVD

For data set [2], the target named is T2, p72 (D600E).
T2 chain: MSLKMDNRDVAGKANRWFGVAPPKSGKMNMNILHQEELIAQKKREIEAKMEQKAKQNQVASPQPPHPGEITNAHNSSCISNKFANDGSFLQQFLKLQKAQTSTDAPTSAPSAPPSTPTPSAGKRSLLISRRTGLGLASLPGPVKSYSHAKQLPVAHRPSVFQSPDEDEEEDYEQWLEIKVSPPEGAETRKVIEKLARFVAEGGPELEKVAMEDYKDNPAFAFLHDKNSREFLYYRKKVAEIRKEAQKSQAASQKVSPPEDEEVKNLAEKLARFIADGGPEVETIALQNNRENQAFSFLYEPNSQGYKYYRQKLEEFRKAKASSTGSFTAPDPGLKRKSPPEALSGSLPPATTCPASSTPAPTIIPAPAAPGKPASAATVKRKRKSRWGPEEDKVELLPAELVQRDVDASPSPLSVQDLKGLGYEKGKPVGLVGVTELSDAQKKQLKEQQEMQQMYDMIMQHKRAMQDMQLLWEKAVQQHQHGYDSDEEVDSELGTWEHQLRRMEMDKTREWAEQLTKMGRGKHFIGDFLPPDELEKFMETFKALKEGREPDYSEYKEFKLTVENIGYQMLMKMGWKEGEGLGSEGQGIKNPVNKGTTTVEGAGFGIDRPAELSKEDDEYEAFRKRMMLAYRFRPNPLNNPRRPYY

In data set [3] the target is T3, p72.
T3 chain: T2 chain with E600D

Where a chain is given by its changes, count along the chain named.

B1: recombinant active caspase-8 (protein)
chain 1: EELCGVMTISDSPREQDSESQTLDKVYQMKSKPRGYCLIINNHNFAKAREKVPKLHSIRDRNGTHLDAGALTTTFEELHFEIKPHHDCTVEQIYEILKIYQLMDHSNMDCFICCILSHGDKGIIYGTDGQEAPIYELTSQFTGLKCPSLAGKPKVFFI
chain 2: MDFSRNLYDIGEQLDSEDLASLKFLSLDYIPQRKQEPIKDALMLFQRLQEKRMLEESNLSFLKELLFRINRLDLLITYLNTRKEEMERELQTPGRAQISAYRFHFCRMSWAEANSQCQTQSVPFWRRVDHLLIRVMLYQISEEVSRSELRSFKFLLQEEISKCKLDDDMNLLDIFIEMEKRVILGEGKLDILKRVCAQINKSLLKIINDYEEFSKGEELCGVMTISDSPREQDSESQTLDKVYQMKSKPRGYCLIINNHNFAKAREKVPKLHSIRDRNGTHLDAGALTTTFEELHFEIKPHHDCTVEQIYEILKIYQLMDHSNMDCFICCILSHGDKGIIYGTDGQEAPIYELTSQFTGLKCPSLAGKPKVFFIQACQGDNYQKGIPVETDSEEQPYLEMDLSSPQTRYIPDEADFLLGMATVNNCVSYRNPAEGTWYIQSLCQSLRERCPRGDDILTILTEVNYEVSNKDDKKNMGKQMPQPTFTLRKKLVFPSD
On to B1, for which the “cleavage of 35S-labelled p72 mutant in vitro, SDS-PAGE and phospho-imaging” value in data set [1] is “The p72 1-600 mutant co-migrates with the 68 kDa fragment produced after cleavage of the wild type p72 and is not further cleaved by addition of caspase-8 (lanes 2 and 5)”; in data set [2], “the same protein profile of p72 D600E mutant is observed in the presence or absence of caspase-8”. The “cleavage of 35S-labelled p72 in vitro, SDS-PAGE and phospho-imaging” value in data set [3] was “This band disappears after addition of activated caspase-8 for 1 hour and a new smaller fragment corresponding to 68 kDa appears (lane 4)”.
